Laboratory results published in patent US20060110774A1.

Molecular target: rabbit anti-GRK polyclonal antibody
Assay: competitive inhibition ELISA: pAb pre-incubated with pGRK, then added to immobilised rGRK

- concentration giving complete inhibition of antibody binding: 10 ng/µL
Binder: NSQSYYNGDPFITKDC [synthetic peptide pGRK (…) derived from human Granzyme K]
